Biological target: calmodulin-Sepharose (calmodulin coupled to Sepharose beads) (UniProt P62157 1-149)
Assay: pull-down

binding result: binds
B1: Pcp4l1 IQ motif synthetic peptide (peptide)
peptide: APETEKAALAIQGKFRRFQKRKKDS

— article PMC3371134 (Journal of Neurochemistry, 2012)
